Experimental data: article PMC9371924, “Exploration of DNA processing features unravels novel properties of ICE conjugation in Gram-positive bacteria”
Residue numbers refer to the chain shown, from its start.

Assays:
[1] = target: T1, RelSt3 (MOBT relaxase) (Streptococcus thermophilus (ICESt3)) (UniProt Q935T7); assay: EMSA; conditions: PAGE EMSA: 20 mM Tris-HCl (pH not stated), 500 mM NaCl, 100 ug/ml salmon sperm DNA, 0.11 uM DNA, 15 min 37 C, gel run at 4 C; agarose EMSA: 400 ng DNA in …
T1 sequence: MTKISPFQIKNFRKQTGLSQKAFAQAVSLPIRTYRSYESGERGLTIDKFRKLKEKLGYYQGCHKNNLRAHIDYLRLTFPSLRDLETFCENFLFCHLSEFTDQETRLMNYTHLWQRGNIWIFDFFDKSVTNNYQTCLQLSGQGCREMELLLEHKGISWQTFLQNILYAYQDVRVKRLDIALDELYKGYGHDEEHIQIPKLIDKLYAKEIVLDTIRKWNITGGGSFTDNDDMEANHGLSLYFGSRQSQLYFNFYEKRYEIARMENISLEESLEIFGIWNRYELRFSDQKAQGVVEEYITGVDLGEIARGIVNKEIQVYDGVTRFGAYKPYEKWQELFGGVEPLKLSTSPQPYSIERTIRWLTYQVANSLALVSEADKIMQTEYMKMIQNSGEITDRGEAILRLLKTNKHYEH

[2] = target: T2, RelSt3 (MOBT relaxase) (Streptococcus thermophilus (ICESt3)) (UniProt Q935T7); assay: EMSA; conditions: PAGE EMSA: 20 mM Tris-HCl (pH not stated), 500 mM NaCl, 100 ug/ml salmon sperm DNA, 0.11 uM DNA, 15 min 37 C, gel run at 4 C; agarose EMSA: 400 ng DNA in …; remark: listed apart in the source
T2 sequence: T1 sequence with S28N, G61E, V128A, D190E, D229N, T297N, A324S, E333R

[3] = target: T3, RelSt3 (MOBT relaxase) (Streptococcus thermophilus (ICESt3), UniProt Q935T7 1-410); assay: EMSA; PAGE EMSA: 20 mM Tris-HCl (pH not stated), 500 mM NaCl, 100 ug/ml salmon sperm DNA, 0.11 uM DNA, 15 min 37 C, gel run at 4 C; agarose EMSA: 400 ng DNA in 20 ul, 15 min 37 C; conditions: protein: recombinant, tags: N-terminal 6xHis-TEV (pSKB3), label: 5' 6-FAM, blunt
T3 sequence: T1 sequence

[4] = target: T4, RelSt3 R32A-R35A (Streptococcus thermophilus (ICESt3), UniProt Q935T7 1-410, R32A;R35A); assay: EMSA; up to 6.4 uM; PAGE EMSA: 20 mM Tris-HCl (pH not stated), 500 mM NaCl, 100 ug/ml salmon sperm DNA, 0.11 uM DNA, 15 min 37 C, gel run at 4 C; agarose EMSA: 400 ng DNA in 20 ul, 15 min 37 C; conditions: protein: recombinant; tags: N-terminal 6xHis-TEV (pSKB3); label: 5' 6-FAM; blunt; possible cruciform
T4 sequence: T1 sequence with R32A, R35A

[5] = target: T5, RelSt3(64-410), HTH deleted (Streptococcus thermophilus (ICESt3), UniProt Q935T7 64-410); assay: EMSA; up to 1.75 uM; PAGE EMSA: 20 mM Tris-HCl (pH not stated), 500 mM NaCl, 100 ug/ml salmon sperm DNA, 0.11 uM DNA, 15 min 37 C, gel run at 4 C; agarose EMSA: 400 ng DNA in 20 ul, 15 min 37 C; conditions: protein: recombinant; tags: N-terminal 6xHis-TEV (pSKB3); label: 5' 6-FAM; blunt; possible cruciform
T5 sequence: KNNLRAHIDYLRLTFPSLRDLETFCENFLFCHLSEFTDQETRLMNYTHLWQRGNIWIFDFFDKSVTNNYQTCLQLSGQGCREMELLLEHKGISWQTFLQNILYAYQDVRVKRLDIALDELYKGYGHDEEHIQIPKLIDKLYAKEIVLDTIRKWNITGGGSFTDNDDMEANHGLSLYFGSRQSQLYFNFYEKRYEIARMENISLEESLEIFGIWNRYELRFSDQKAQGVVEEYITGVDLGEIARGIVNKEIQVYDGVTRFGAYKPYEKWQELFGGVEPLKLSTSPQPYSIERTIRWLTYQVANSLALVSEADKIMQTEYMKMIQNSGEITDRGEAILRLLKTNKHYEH

[6] = target: T3, RelSt3 (MOBT relaxase); assay: EMSA; apparent Kd; PAGE EMSA: 20 mM Tris-HCl (pH not stated), 500 mM NaCl, 100 ug/ml salmon sperm DNA, 0.11 uM DNA, 15 min 37 C, gel run at 4 C; agarose EMSA: 400 ng DNA in 20 ul, 15 min 37 C; conditions: protein: recombinant; tags: N-terminal 6xHis-TEV (pSKB3); label: 5' 6-FAM; blunt; possible cruciform
[7] = target: T3, RelSt3 (MOBT relaxase); assay: EMSA; up to 6.4 uM; PAGE EMSA: 20 mM Tris-HCl (pH not stated), 500 mM NaCl, 100 ug/ml salmon sperm DNA, 0.11 uM DNA, 15 min 37 C, gel run at 4 C; agarose EMSA: 400 ng DNA in 20 ul, 15 min 37 C; conditions: protein: recombinant; tags: N-terminal 6xHis-TEV (pSKB3); label: 5' 6-FAM; blunt
[8] = target: T3, RelSt3 (MOBT relaxase); assay: EMSA; data not shown; PAGE EMSA: 20 mM Tris-HCl (pH not stated), 500 mM NaCl, 100 ug/ml salmon sperm DNA, 0.11 uM DNA, 15 min 37 C, gel run at 4 C; agarose EMSA: 400 ng DNA in 20 ul, 15 min 37 C; conditions: protein: recombinant; tags: N-terminal 6xHis-TEV (pSKB3); label: 5' 6-FAM; blunt

With “GAGACTTCAACCCCCGATTTCTAATAGGGGGGTTACATTTTCAAGATTTAGAAAGTGTGTCACTTTGGTCCAAAAAGTGTGTCACTTAGTCAAAAGGAG / CTCCTTTTGACTAAGTGACACACTTTTTGGACCAAAGTGACACACTTTCTAAATCTTGA [ori50 (ss nic region + ds IR2)]” the Kd [1] was 3200 nM.

In the case of “AAAAAGAATTCTGTTCATCATGGGCTAGGACAAGGGCAAGGACAAGCCTGACCACAGGTCAGGCGCAGACCGTAGCCCGAAGTTCCTAGGCCATGATGAGACTTCAACCCCCGATTTCTAATAGGGGGGTTACATTTGGCCAAAGTGCCACGTCCACCCCTCCTCATTCCTTGTGGGAGTTGGGATTTCAAGATTTAGAAAGTGTGTCACTTTGGTCCAAAAAGTGTGTCACTTAGTCAAAAGGAGGTGTTCCCATGAATGACTAAAATAAGTCCCTTTCAGATCAAGGGCCCTTTTT (double strand) [oriT1 PCR product]”, the binding [2] is reported as “binds”.

B1: ori41M6 (IR2b mutated) (dsDNA)
DNA 1: TCAAGATTTAGAAAGTGTGTCACTTTGGTCCAAACGATACGCTGACGAGTCAAAAGGAG
DNA 2: CTCCTTTTGACTCGTCAGCGTATCGTTTGGACCAAAGTGACACACTTTCTAAATCTTGA
B1: no binding [3].

B2: ori41M11 (IR2 replaced by IR of same length and GC%) (dsDNA)
DNA 1: TCAAGATTTAGACGATACGCTATCGTGGTCCAAACGATACGCTATCGAGTCAAAAGGAG
DNA 2: CTCCTTTTGACTCGATAGCGTATCGTTTGGACCACGATAGCGTATCGTCTAAATCTTGA
B2: no binding ([3]; possible hairpin).

B3: ori41M5 (IR2a mutated) (dsDNA)
DNA 1: TCAAGATTTAGACGATACGCTGACGTGGTCCAAAAAGTGTGTCACTTAGTCAAAAGGAG
DNA 2: CTCCTTTTGACTAAGTGACACACTTTTTGGACCACGTCAGCGTATCGTCTAAATCTTGA
B3: no binding [3].

B4: ori41 (ori41WT) dsDNA, full IR2 (dsDNA)
DNA 1: TCAAGATTTAGAAAGTGTGTCACTTTGGTCCAAAAAGTGTGTCACTTAGTCAAAAGGAG
DNA 2: CTCCTTTTGACTAAGTGACACACTTTTTGGACCAAAGTGACACACTTTCTAAATCTTGA
With B4 the binding result [4] was “no binding”, the binding result [5] was “no binding” and the Kd [6] was about 1600 nM.

B5: non-specific dsDNA (dsDNA)
DNA 1: CTTACCGATAAGAACTTACCGCTCCTATGAATCTGGGGAAAGAGGTCTGACCATTGACAAGTTTCGAAAACTCAAAGAAAAGC
DNA 2: GCTTTTCTTTGAGTTTTCGAAACTTGTCAATGGTCAGACCTCTTTCCCCAGATTCATAGGAGCGGTAAGTTCTTATCGGTAAG
B5: no binding [7].

B6: ori46 (IR1, nic site) (dsDNA)
DNA 1: GAGACTTCAACCCCCGATTTCTAATAGGGGGGTTACAT
DNA 2: ATGTAACCCCCCTATTAGAAATCGGGGGTTGAAGTCTC
B6: no binding [7].

B7: ori47 (IR1-IR2 spacer) (dsDNA)
DNA 1: ACATTTGGCCAAAGTGCCACGTCCACCCCTCCTCATTCCTTGTGGGAGTTGGGATTTCAAGATTTAGA
DNA 2: TCTAAATCTTGAAATCCCAACTCCCACAAGGAATGAGGAGGGGTGGACGTGGCACTTTGGCCAAATGT
B7: no binding [8].
